Test results taken from publication PMC6546395 (eLife, 2019).

B1: Sli15/Ipl1 core chromosomal passenger complex (complex, S. cerevisiae)
chain 1: MDWAIKAARKKTQRKPGSTRSIIETLDDLNNLTTDAHSEINQRLYESSEWLRNNVYMNTLKYEDKKMEESLISPENTHNKMDVEFPKMKGEYELSNSQNDAAKDVTKTPRNGLHNDKSITPKSLRRKEVTEGMNRFSIHDTNKSPVEPLNSVKVDANESEKSSPWSPYKVEKVLRESSKTSESPINTKRFDNQTWAAKEEMENEPILQALKKAESVKVKPPPNSGIARSQRRSNMFVPLPNKDPLIIQHIPPTKSSGSIPKVRTVKESPIAFKKKSTINSPAIRAVENSDTAGSTKASSVFDRLSSIPTKSFENKISRGNVGHKYSSSSIDLTGSPMKKVSQKFKSINSTDTDMQEALRDIFSVKNKITKNNSPKGKNSRKSSIPRFDKTSLKLTTHKKLAIIAEQKKKSKHSSDVHKTGSRPHSISPTKISVDSSSPSKEVKNYYQSPVRGYLRPTKASISPNKNKNLTTSQTPHRLKIKEKTLRKLSPNIADISKPESRKSKNYRLTNLQLLPPAEAERDDLKKKFDKRLSGIMRSQQEHHRRKQEKQKRMSHLEQDLKKQTSFSNDYKDIRLKESLAPFDNHVRDTINKNTAFSTDNILATINTVDHREIIGNVTPKIASVNDSLPEINTDSEDEASVTLAAWAKSPYLQEQLIRQQDINPQTIFGPIPPLHTDEIFPNPRLNRLKPRQIVPKRS
chain 2: MQRNSLVNIKLNANSPSKKTTTRPNTSRINKPWRISHSPQQRNPNSKIPSPVREKLNRLPVNNKKFLDMESSKIPSPIRKATSSKMIHENKKLPKFKSLSLDDFELGKKLGKGKFGKVYCVRHRSTGYICALKVMEKEEIIKYNLQKQFRREVEIQTSLNHPNLTKSYGYFHDEKRVYLLMEYLVNGEMYKLLRLHGPFNDILASDYIYQIANALDYMHKKNIIHRDIKPENILIGFNNVIKLTDFGWSIINPPENRRKTVCGTIDYLSPEMVESREYDHTIDAWALGVLAFELLTGAPPFEEEMKDTTYKRIAALDIKMPSNISQDAQDLILKLLKYDPKDRMRLGDVKMHPWILRNKPFWENKRL
notes: Sli15 (INCENP ortholog), wild type; open reading frame amplified from yeast genomic DNA; Ipl1 (Aurora B ortholog); also called Sli15-2xStrep/Ipl1; Sli15-2xStrep-HA-6xHis/Ipl1; source: High Five insect cells (baculovirus), purified (Strep-Tactin Superflow agarose); not shown: 2xStrep, C-terminal, kept; HA, C-terminal, kept; 6xHis, C-terminal, kept
B2: dephosphorylated Sli15/Ipl1 (complex, S. cerevisiae)
chain 1: B1 chain 1
chain 2: B1 chain 2
modifications: basal phosphorylation removed with lambda phosphatase | basal phosphorylation removed with lambda phosphatase
notes: Sli15 (INCENP ortholog); open reading frame amplified from yeast genomic DNA; Ipl1 (Aurora B ortholog); also called Sli15/Ipl1 (dp); not shown: 2xStrep, C-terminal, kept; HA, C-terminal, kept; 6xHis, C-terminal, kept

How the values were obtained:
[1] = biological target: T1, COMA complex (Ctf19/Okp1/Mcm21/Ame1) (S. cerevisiae, UniProt P38313 1-324; P53298 1-406; Q02732 1-369; Q06675 1-368); assay: cross-linking; Sli15-2xStrep-HA-6xHis/Ipl1 with Ame1/Okp1 and Ctf19/Mcm21 assembled on Strep-Tactin agarose (RT, 1 hr; 50 mM NaH2PO4 pH 8.0, 500 mM NaCl, 5% glycerol), eluted with biotin, re-isolated on Ni-NTA beads; BS3 0.25–0.5 mM, 30°C, 30 min; LC-MS/MS, xQuest; conditions: both partners purified
T1 construct: Ame1 (CENP-U ortholog); Okp1 (CENP-Q ortholog); Ctf19 (CENP-P ortholog); open reading frame amplified from yeast genomic DNA; Mcm21 (CENP-O ortholog); The two heterodimers m7 and m12 together; copies: + + +

[2] = biological target: T1, COMA complex (Ctf19/Okp1/Mcm21/Ame1); assay: pull-down; Sli15-2xStrep-HA-6xHis/Ipl1 immobilised on Strep-Tactin Superflow agarose, 2-fold molar excess of the partners; 50 mM NaH2PO4 pH 8, 120 mM NaCl, 5% glycerol, 4°C, 1 hr; SDS-PAGE and Coomassie; conditions: both partners purified

T1 sequence (P38313 whole entry, chain 1 of 4): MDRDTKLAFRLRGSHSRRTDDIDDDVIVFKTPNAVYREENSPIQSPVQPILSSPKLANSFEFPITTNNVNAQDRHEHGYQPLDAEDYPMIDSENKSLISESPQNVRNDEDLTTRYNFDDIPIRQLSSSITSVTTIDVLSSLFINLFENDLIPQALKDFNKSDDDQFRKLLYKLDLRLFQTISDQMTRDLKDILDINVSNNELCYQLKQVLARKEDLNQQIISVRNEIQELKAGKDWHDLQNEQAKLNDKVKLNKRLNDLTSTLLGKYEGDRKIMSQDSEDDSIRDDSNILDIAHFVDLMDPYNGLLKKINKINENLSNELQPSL
T1 sequence (P53298 whole entry, chain 2 of 4): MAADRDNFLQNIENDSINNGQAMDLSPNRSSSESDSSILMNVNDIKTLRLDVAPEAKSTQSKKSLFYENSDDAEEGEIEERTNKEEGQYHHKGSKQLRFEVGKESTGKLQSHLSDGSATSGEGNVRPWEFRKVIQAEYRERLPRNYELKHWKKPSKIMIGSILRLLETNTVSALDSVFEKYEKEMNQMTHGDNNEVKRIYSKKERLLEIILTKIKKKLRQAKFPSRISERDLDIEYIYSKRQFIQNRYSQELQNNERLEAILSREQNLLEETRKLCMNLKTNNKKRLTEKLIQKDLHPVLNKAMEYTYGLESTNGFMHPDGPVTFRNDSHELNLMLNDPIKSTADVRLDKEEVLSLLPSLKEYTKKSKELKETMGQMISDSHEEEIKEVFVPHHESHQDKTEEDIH
T1 sequence (Q02732 whole entry, chain 3 of 4): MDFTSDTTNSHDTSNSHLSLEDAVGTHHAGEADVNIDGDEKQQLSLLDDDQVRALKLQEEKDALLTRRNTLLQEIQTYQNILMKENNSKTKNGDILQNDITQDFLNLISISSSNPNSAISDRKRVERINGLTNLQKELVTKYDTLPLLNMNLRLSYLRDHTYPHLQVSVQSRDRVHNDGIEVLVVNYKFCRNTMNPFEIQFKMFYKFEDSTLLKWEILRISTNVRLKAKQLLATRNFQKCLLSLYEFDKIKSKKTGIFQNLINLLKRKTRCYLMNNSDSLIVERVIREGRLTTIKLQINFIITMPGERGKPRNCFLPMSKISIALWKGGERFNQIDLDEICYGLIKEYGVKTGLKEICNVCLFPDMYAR
T1 sequence (Q06675 whole entry, chain 4 of 4): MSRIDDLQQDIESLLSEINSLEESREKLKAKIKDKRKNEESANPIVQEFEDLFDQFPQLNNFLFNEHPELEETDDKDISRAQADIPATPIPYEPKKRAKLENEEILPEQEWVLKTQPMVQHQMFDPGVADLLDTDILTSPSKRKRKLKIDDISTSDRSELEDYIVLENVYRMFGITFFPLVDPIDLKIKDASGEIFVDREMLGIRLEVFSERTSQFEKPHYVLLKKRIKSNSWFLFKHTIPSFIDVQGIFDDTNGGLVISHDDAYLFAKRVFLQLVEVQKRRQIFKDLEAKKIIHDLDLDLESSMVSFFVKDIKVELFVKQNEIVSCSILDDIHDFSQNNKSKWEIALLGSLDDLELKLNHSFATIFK

Binder	binding result [1]	binding result [2]
B1	binds	
B2		binds
